From paper PMC7212365

Key:
[1] = biological target: HER2 binding dimeric IgA1 produced in HEK293F cells (human) (UniProt P01591); assay: SPR; Biacore T200; IgA variants immobilised on a Protein L sensor chip with the Fc-domain pointing toward the solution; five increasing concentrations of FcαRI injected in single-cycle kinetic experiments; 1:1 binding model; three independent kinetic runs
[2] = biological target: HER2 binding dimeric IgA1 produced in N. benthamiana ΔXT/FT plants (human) (UniProt P01591); assay: as above
[3] = biological target: HER2 binding monomeric IgA1 produced in HEK293F cells (human); assay: as above
[4] = biological target: HER2 binding monomeric IgA2m(2) produced in N. benthamiana ΔXT/FT plants (human); assay: as above
[5] = biological target: HER2 binding dimeric IgA2m(2) produced in N. benthamiana ΔXT/FT plants (human) (UniProt P01591); assay: as above
[6] = biological target: HER2 binding dimeric IgA2m(2) produced in HEK293F cells (human) (UniProt P01591); assay: as above
[7] = biological target: HER2 binding monomeric IgA2m(2) produced in HEK293F cells (human); assay: as above
[8] = biological target: HER2 binding monomeric IgA1 produced in N. benthamiana ΔXT/FT plants (human); assay: as above
[9] = biological target: Dimeric HER2 binding IgA1 produced in N. benthamiana ΔXT/FT (human) (UniProt P01591); assay: SPR; Biacore T200; IgA variants immobilized on a Protein L sensor chip; five increasing concentrations of FcαRI injected in single-cycle kinetic experiments; 1:1 binding model; three independent kinetic runs
[10] = biological target: Dimeric HER2 binding IgA2m(2) produced in N. benthamiana ΔXT/FT (human) (UniProt P01591); assay: as above
[11] = biological target: Dimeric HER2 binding IgA1 produced in HEK293F cells (human) (UniProt P01591); assay: as above
[12] = biological target: Dimeric HER2 binding IgA2m(2) produced in HEK293F cells (human) (UniProt P01591); assay: as above
[13] = biological target: Monomeric HER2 binding IgA2m(2) produced in HEK293F cells (human); assay: as above
[14] = biological target: Monomeric HER2 binding IgA2m(2) produced in N. benthamiana ΔXT/FT (human); assay: as above
[15] = biological target: Monomeric HER2 binding IgA1 produced in HEK293F cells (human); assay: as above
[16] = biological target: Monomeric HER2 binding IgA1 produced in N. benthamiana ΔXT/FT (human); assay: as above

**Q.** Which results are given for “Recombinant soluble FcαRI (from UniProt P24071 22-227) (receptor)”?
**A.** stoichiometry N [1]: 1; stoichiometry N [2]: 1; Kd [3]: 0.11 µM; stoichiometry N [3]: 1; Kd [4]: 0.17 µM; stoichiometry N [4]: 1; stoichiometry N [5]: 1; stoichiometry N [6]: 1; Kd [7]: 0.17 µM; stoichiometry N [7]: 1; Kd [8]: 0.11 µM; stoichiometry N [8]: 1; Kd [9]: 0.151 µM; koff [9]: 0.057 s⁻¹; kon [9]: 370000 M⁻¹ s⁻¹; Kd [10]: 0.226 µM; koff [10]: 0.049 s⁻¹; kon [10]: 270000 M⁻¹ s⁻¹; Kd [11]: 0.144 µM; koff [11]: 0.055 s⁻¹; kon [11]: 360000 M⁻¹ s⁻¹; Kd [12]: 0.182 µM; koff [12]: 0.049 s⁻¹; kon [12]: 260000 M⁻¹ s⁻¹; Kd [13]: 0.157 µM; koff [13]: 0.05 s⁻¹; kon [13]: 310000 M⁻¹ s⁻¹; Kd [14]: 0.16 µM; koff [14]: 0.055 s⁻¹; kon [14]: 340000 M⁻¹ s⁻¹; Kd [15]: 0.109 µM; koff [15]: 0.05 s⁻¹; kon [15]: 440000 M⁻¹ s⁻¹; Kd [16]: 0.103 µM; koff [16]: 0.061 s⁻¹; kon [16]: 580000 M⁻¹ s⁻¹
